Results published in paper PMC3461516 (The Journal of Cell Biology, 2012).

Target: His6-Mad2 (recombinant human Mad2) (human, UniProt Q13257 1-205)
Experiment: pull-down

Sequence of His6-Mad2 (recombinant human Mad2) (Q13257 whole entry): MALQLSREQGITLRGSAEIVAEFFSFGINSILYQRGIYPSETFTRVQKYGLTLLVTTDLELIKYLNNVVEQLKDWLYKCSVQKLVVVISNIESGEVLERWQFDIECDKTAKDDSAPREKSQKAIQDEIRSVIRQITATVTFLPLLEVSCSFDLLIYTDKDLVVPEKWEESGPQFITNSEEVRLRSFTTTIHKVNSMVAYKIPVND

- binding result: binds
B1: GST-Cdc20^N151 (first 151 amino acids of human Cdc20), wild type (domain or fragment)
chain: MAQFAFESDLHSLLQLDAPIPNAPPARWQRKAKEAAGPAPSPMRAANRSHSAGRTPGRTPGKSSSKVQTTPSKPGGDRYIPHRSAAQMEVASFLLSKENQPENSQTPTKKEHQKAWALNLNGFDVEEAKILRLSGKPQNAPEGYQNRLKVL
